# Columns and labels:
# [1] = molecular target: T1, HLA-A*02:01 presenting RABGAP1L 408-416 peptide (…) (human); experiment: flow cytometry, peptide-pulsed T2 cells;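 as to S/N ratio: ratio of peak mean fluorescence intensity across a 12-point threefold antibody dilution series to the MFI with secondary antibody only, live-gated cells by flow cytometry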
# T1 construct: On peptide-pulsed T2 cells; also called T2 Pulsed RABGAP1L 408-416
# Protocol: (§1) Samples were run on an Intellicyt iQue flow cytometer (Intellicyt) and results were analyzed using Forecyte analysis software (Intellicyte) to calculate the mean fluorescent intensity (MFI) after gating for live cells. MFI values were plotted in Graphpad Prism using a four-parameter logistic equation over a 12-point response curve to calculate EC₅₀ values. The secondary antibody alone (i.e. no primary antibody) for each dose-response curve is also included in the analysis as a continuation of the three-fold serial dilution and is represented as the lowest dose. The signal to noise (S/N) was determined by taking the ratio of the highest MFI on the dose response curve to the MFI in the secondary alone wells.
# [2] = molecular target: T2, HLA-A*02:01 presenting CARD8 170-178 peptide (…) (human); experiment: flow cytometry, peptide-pulsed T2 cells;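 as to S/N ratio: ratio of peak mean fluorescence intensity across a 12-point threefold antibody dilution series to the MFI with secondary antibody only, live-gated cells by flow cytometry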
# T2 construct: On peptide-pulsed T2 cells; also called T2 Pulsed CARD8 170-178
# Protocol: as §1
# [3] = molecular target: T3, HLA-A*02:01 presenting TEP1 2156-2164 peptide (…) (human); experiment: flow cytometry, peptide-pulsed T2 cells;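 as to S/N ratio: ratio of peak mean fluorescence intensity across a 12-point threefold antibody dilution series to the MFI with secondary antibody only, live-gated cells by flow cytometry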
# T3 construct: On peptide-pulsed T2 cells; also called T2 Pulsed TEP1 2156-2164
# Protocol: as §1
# [4] = molecular target: T4, HLA-A*02:01 presenting AOX1 795-803 peptide (…) (human); experiment: flow cytometry, peptide-pulsed T2 cells;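 as to S/N ratio: ratio of peak mean fluorescence intensity across a 12-point threefold antibody dilution series to the MFI with secondary antibody only, live-gated cells by flow cytometry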
# T4 construct: On peptide-pulsed T2 cells; also called T2 Pulsed AOX1 795-803
# Protocol: as §1
# [5] = molecular target: T5, HLA-A*02:01 presenting CNOT1 1965-1973 peptide (…) (human); experiment: flow cytometry, peptide-pulsed T2 cells
# T5 construct: On peptide-pulsed T2 cells; also called T2 Pulsed CNOT1 1965-1973
# Protocol: as §1
# [6] = molecular target: T6, HLA-A*02:01 presenting HEATR5A 1925-1933 peptide (…) (human); experiment: flow cytometry, peptide-pulsed T2 cells
# T6 construct: On peptide-pulsed T2 cells
# Protocol: as §1
# [7] = molecular target: T7, HLA-A*02:01 presenting SMIM11A 4-12 peptide (…) (human); experiment: flow cytometry, peptide-pulsed T2 cells
# T7 construct: On peptide-pulsed T2 cells; also called T2 Pulsed SMIM11A 4-12
# Protocol: as §1
# [8] = molecular target: T8, HLA-A*02:01 presenting PCDHGC3 337-345 peptide (…) (human); experiment: flow cytometry, peptide-pulsed T2 cells
# T8 construct: On peptide-pulsed T2 cells; also called T2 Pulsed PCDHGC3 337-345
# Protocol: as §1
# [9] = molecular target: T9, HLA-A*02:01 presenting MRPL37 334-342 peptide (…) (human); experiment: flow cytometry, peptide-pulsed T2 cells
# T9 construct: On peptide-pulsed T2 cells; also called T2 Pulsed MRPL37 334-342
# Protocol: as §1
# [10] = molecular target: T10, HLA-A*02:01 presenting MAGE-A4 286-294 peptide (…) (human); experiment: flow cytometry, peptide-pulsed T2 cells
# T10 construct: On peptide-pulsed T2 cells
# Protocol: as §1
# [11] = molecular target: T11, HLA-A*02:01 presenting PSME2 145-153 peptide (…) (human); experiment: flow cytometry, peptide-pulsed T2 cells
# T11 construct: On peptide-pulsed T2 cells; also called T2 Pulsed PSME2 145-153
# Protocol: as §1
# [12] = molecular target: T12, HLA-A*02:01 presenting SHTN1 198-206 peptide (…) (human); experiment: flow cytometry, peptide-pulsed T2 cells
# T12 construct: On peptide-pulsed T2 cells; also called T2 Pulsed SHTN1 198-206
# Protocol: as §1
# [13] = molecular target: T13, HLA-A*02:01 presenting FN1 2182-2190 peptide (…) (human); experiment: flow cytometry, peptide-pulsed T2 cells
# T13 construct: On peptide-pulsed T2 cells; also called T2 Pulsed FN1 2182-2190
# Protocol: as §1
# [14] = molecular target: T14, HLA-A*02:01 presenting PLEKHH2 790-798 peptide (…) (human); experiment: flow cytometry, peptide-pulsed T2 cells
# T14 construct: On peptide-pulsed T2 cells; also called T2 Pulsed PLEKHH2 790-798
# Protocol: as §1
# [15] = molecular target: T15, HLA-A*02:01 presenting NBAS 2063-2071 peptide (…) (human); experiment: flow cytometry, peptide-pulsed T2 cells
# T15 construct: On peptide-pulsed T2 cells; also called T2 Pulsed NBAS 2063-2071
# Protocol: as §1
# [16] = molecular target: T2, HLA-A*02:01 presenting CARD8 170-178 …; experiment: cell-based or functional assay
# [17] = molecular target: T5, HLA-A*02:01 presenting CNOT1 1965-1973 …; experiment: cell-based or functional assay
# [18] = molecular target: T6, HLA-A*02:01 presenting HEATR5A …; experiment: cell-based or functional assay
# [19] = molecular target: T10, HLA-A*02:01 presenting MAGE-A4 286-294 …; experiment: cell-based or functional assay
# [20] = molecular target: T12, HLA-A*02:01 presenting SHTN1 198-206 …; experiment: cell-based or functional assay
# [21] = molecular target: T1, HLA-A*02:01 presenting RABGAP1L 408-416 …; experiment: flow cytometry, peptide-pulsed T2 cells; remark: listed apart in the source
# [22] = molecular target: T2, HLA-A*02:01 presenting CARD8 170-178 …; experiment: flow cytometry, peptide-pulsed T2 cells; remark: listed apart in the source
# [23] = molecular target: T3, HLA-A*02:01 presenting TEP1 2156-2164 …; experiment: flow cytometry, peptide-pulsed T2 cells; remark: listed apart in the source
# [24] = molecular target: T5, HLA-A*02:01 presenting CNOT1 1965-1973 …; experiment: flow cytometry, peptide-pulsed T2 cells; remark: listed apart in the source
# [25] = molecular target: T6, HLA-A*02:01 presenting HEATR5A …; experiment: flow cytometry, peptide-pulsed T2 cells; remark: listed apart in the source
# [26] = molecular target: T7, HLA-A*02:01 presenting SMIM11A 4-12 …; experiment: flow cytometry, peptide-pulsed T2 cells; remark: listed apart in the source
# [27] = molecular target: T8, HLA-A*02:01 presenting PCDHGC3 337-345 …; experiment: flow cytometry, peptide-pulsed T2 cells; remark: listed apart in the source
# [28] = molecular target: T9, HLA-A*02:01 presenting MRPL37 334-342 …; experiment: flow cytometry, peptide-pulsed T2 cells; remark: listed apart in the source
# [29] = molecular target: T11, HLA-A*02:01 presenting PSME2 145-153 …; experiment: flow cytometry, peptide-pulsed T2 cells; remark: listed apart in the source
# [30] = molecular target: T13, HLA-A*02:01 presenting FN1 2182-2190 …; experiment: flow cytometry, peptide-pulsed T2 cells; remark: listed apart in the source
# [31] = molecular target: T14, HLA-A*02:01 presenting PLEKHH2 790-798 …; experiment: flow cytometry, peptide-pulsed T2 cells; remark: listed apart in the source
# [32] = molecular target: T15, HLA-A*02:01 presenting NBAS 2063-2071 …; experiment: flow cytometry, peptide-pulsed T2 cells; remark: listed apart in the source
binder,measurement,setting,value
"bsAb6043 (bispecific antibody, V domains shown, Only variable regions are tied to the bispecific; also called MAGE-A4×CD3 (7221G) bispecific antibody) VH 1: QVQLVESGGGLVKPGGSLRLSCAASGFTFSEYYLTWIRQAPGKGLDWIAYISSSGYNIYYADSVKDRFTISRDNGKNSLFLQMNNLRAEDTAVYFCAREGVTDGMDVWGQGTTVTVSS VH 2: EVQLVESGGGLVQPGRSLRLSCAASGFTFDDYSMHWVRQAPGKGLEWVSGISWNSGSKGYADSVKGRFTISRDNAKNSLYLQMNSLRAEDTALYYCAKYGSGYGKFYHYGLDVWGQGTTVTVSS VL: DIQMTQSPSSLSASVGDRVTITCRASQSIDTFLNWYQQKPGKVPKLLIYAASNLESGVPSRFSGSGSGTVFTLTISRLQPEDFATYYCQQSYSIPPITFGQGTRVEIK",S/N ratio,[1],1
same,S/N ratio,[2],1
same,S/N ratio,[3],1
same,S/N ratio,[4],110
same,S/N ratio,[5],1
same,S/N ratio,[6],1
same,S/N ratio,[7],1
same,S/N ratio,[8],1
same,S/N ratio,[9],1
same,S/N ratio,[10],244
same,S/N ratio,[11],1
same,S/N ratio,[12],5
same,S/N ratio,[13],1
same,S/N ratio,[14],1
same,S/N ratio,[15],1
same,"EC50 (M), Jurkat/NF-κB-Luc reporter with pulsed T2 cells",[16],> 2e-08 M
same,"Fold change, Jurkat/NF-κB-Luc reporter with pulsed T2 cells",[16],1.8 fold
same,"EC50 (M), Jurkat/NF-κB-Luc reporter with pulsed T2 cells",[17],> 2e-08 M
same,"Fold change, Jurkat/NF-κB-Luc reporter with pulsed T2 cells",[17],1 fold
same,"EC50 (M), Jurkat/NF-κB-Luc reporter with pulsed T2 cells",[18],> 2e-08 M
same,"Fold change, Jurkat/NF-κB-Luc reporter with pulsed T2 cells",[18],2.1 fold
same,"EC50 (M), Jurkat/NF-κB-Luc reporter with pulsed T2 cells",[19],3e-10 M
same,"Fold change, Jurkat/NF-κB-Luc reporter with pulsed T2 cells",[19],75.3 fold
same,"EC50 (M), Jurkat/NF-κB-Luc reporter with pulsed T2 cells",[20],3.5e-09 M
same,"Fold change, Jurkat/NF-κB-Luc reporter with pulsed T2 cells",[20],75.3 fold
same,binding result,[21],no binding
same,binding result,[22],no binding
same,binding result,[23],no binding
same,binding result,[24],no binding
same,binding result,[25],no binding
same,binding result,[26],no binding
same,binding result,[27],no binding
same,binding result,[28],no binding
same,binding result,[29],no binding
same,binding result,[30],no binding
same,binding result,[31],no binding
same,binding result,[32],no binding

# From patent US20240226163A1 (Regeneron, published 2024)
